{"source": "patent US20250057968A1", "about": "“ANTI-DLL3 ANTIBODY AND PHARMACEUTICAL USE THEREOF, AND ANTIBODY-DRUG CONJUGATE CONTAINING ANTI-DLL3 ANTIBODY” (Jiangsu Hengrui Pharmaceuticals Co., Ltd., priority 2021, published 2025)", "biological_target": "T1, Human DLL3 full-length protein on cells (human, UniProt Q9NYJ7 27-618)", "T1 construct": "H1184 and DMS53 express DLL3 themselves; The cell line is named under assay; also called H1184 cells; DLL3/H82", "T1 sequence": "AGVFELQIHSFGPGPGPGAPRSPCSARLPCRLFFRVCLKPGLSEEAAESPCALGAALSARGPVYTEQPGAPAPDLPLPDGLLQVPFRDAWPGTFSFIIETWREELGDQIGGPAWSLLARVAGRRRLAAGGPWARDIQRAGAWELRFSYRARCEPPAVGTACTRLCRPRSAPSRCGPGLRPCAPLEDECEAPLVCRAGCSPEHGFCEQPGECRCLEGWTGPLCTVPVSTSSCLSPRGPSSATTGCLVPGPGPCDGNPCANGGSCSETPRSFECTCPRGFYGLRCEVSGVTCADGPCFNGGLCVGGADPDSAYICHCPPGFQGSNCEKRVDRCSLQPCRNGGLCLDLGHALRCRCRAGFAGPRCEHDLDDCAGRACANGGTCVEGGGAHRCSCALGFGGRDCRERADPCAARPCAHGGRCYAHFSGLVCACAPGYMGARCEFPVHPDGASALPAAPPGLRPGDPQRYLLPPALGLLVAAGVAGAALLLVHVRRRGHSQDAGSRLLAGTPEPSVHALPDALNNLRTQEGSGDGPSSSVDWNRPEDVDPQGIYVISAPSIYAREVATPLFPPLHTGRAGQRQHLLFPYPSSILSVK", "assay": "FACS on DLL3/H82 cells", "experimental": "Cells of the DLL3-expressing small cell lung cancer cell lines H1184 (ATCC, Cat. No. CRL-5858), DLL3/H82, cynoDLL3/CHO-s, and RatDLL3/CHO-s were suspended at 1×10^6/mL in FACS buffer (1% BSA+pH 7.4 PBS), and the cell suspensions were added to a 96-well round-bottom plate (Corning, 3795) at 100 μL/well. The plate was centrifuged at 300 g for 5 min, and the supernatant was removed. Different concentrations of test antibodies were added at 100 μL/well. The plate was incubated in the dark in a refrigerator at 4° C. for 1 h. After 3 washes by centrifugation at 300 g, working concentrations of APC anti-human IgG Fc (BioLegend, 410712) or PE F(ab′)2-goat anti-human IgG (invitrogen, H10104) were added. The plate was incubated in the dark in a refrigerator at 4° C. for 40 min. After 3 washes by centrifugation at 300 g, the geometric mean fluorescence intensity was measured on an Invitrogen flow cytometer, and the EC50 values of the antibodies in binding to DLL3-expressing cells were calculated.", "data": [{"binder": "Hu100 (antibody, human IgG1, kappa, V domains shown, also called hAb100L1H1) VH: EVQLVESGGGLVKPGGSLRLSCAASGFTFSDSGMHWIRQAPGKGLEWVSYISSGSSTIHYADTVKGRFTISRDNAKNSLYLQMNSLRAEDTAVYYCASPLYYYGRSYNAVAYWGQGTTVTVSS VL: DIQMTQSPSSLSASVGDRVTITCHASQNINVWLSWYQQKPGKVPKLLIYKASDLHTGVPSRFSGSGSGTDFTLTISSLQPEDVATYYCQQGQSYPLTFGGGTKVEIKR", "values": [{"measurement": "EC50", "result": 0.24, "unit": "nM"}, {"measurement": "Emax", "result": 14300}]}]}
